Source: patent US20140356345

T1: 33-mer gliadin peptide
T1 sequence: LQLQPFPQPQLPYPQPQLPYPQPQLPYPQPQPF

T2: 33-mer gliadin peptide
T2 chain: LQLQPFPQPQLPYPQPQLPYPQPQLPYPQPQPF


Tests used:
33-mer gliadin peptide [1] = tested on: T1, 33-mer gliadin peptide
33-mer gliadin peptide [2] = target: T2, 33-mer gliadin peptide

Molecule	residual intact 33-mer (1-33) by HPLC-MS, Control T2h (pepsin alone, 1 mg/ml), pH 3 (33-mer gliadin peptide [1])	33-mer disappearance by HPLC-MS, 9 uU enzyme, 2 h, pH 3 (33-mer gliadin peptide [2])	residual intact 33-mer (1-33) by HPLC-MS, T0 (33-mer gliadin peptide [2])	residual intact 33-mer (1-33) by HPLC-MS, T30 + pepsin (1 mg/ml), 2 uU enzyme, pH 3 (33-mer gliadin peptide [2])	residual intact 33-mer (1-33) by HPLC-MS, T30, 2 uU enzyme, pH 3 (33-mer gliadin peptide [2])	residual intact 33-mer (1-33) by HPLC-MS, T2h + pepsin (1 mg/ml), 2 uU enzyme, pH 3 (33-mer gliadin peptide [2])	residual intact 33-mer (1-33) by HPLC-MS, T2h, 2 uU enzyme, pH 3 (33-mer gliadin peptide [2])	proteolysis of gliadin, SDS-PAGE, 5 uU enzyme, pH 3, 37 C (gliadin (Sigma G3375))	33-mer disappearance by HPLC-MS, 8 uU enzyme, 2 h, pH 3 (33-mer gliadin peptide [2])	residual intact 33-mer (1-33) by HPLC-MS, T30 + pepsin (1 mg/ml), 4 uU enzyme, pH 3 (33-mer gliadin peptide [2])	residual intact 33-mer (1-33) by HPLC-MS, T30, 4 uU enzyme, pH 3 (33-mer gliadin peptide [2])	residual intact 33-mer (1-33) by HPLC-MS, T2h + pepsin (1 mg/ml), 4 uU enzyme, pH 3 (33-mer gliadin peptide [2])	residual intact 33-mer (1-33) by HPLC-MS, T2h, 4 uU enzyme, pH 3 (33-mer gliadin peptide [2])
pepsin	95% residual	–	–	–	–	–	–	–	–	–	–	–	–
endopep-40 (protein) MSRRVTGTILGGLILAMVPFLSTAANAAPQAAPASVSHPFHHSCATVKPGRASCNALVRSDIAQSAATLAHQAAAPSGLSPANLQSAYKLPSSTAGSGQTVAIVDAYDAPTAEADLNVYRSQFGLGACTTANGCFKKVDQNGGTSYPRKDGGWAQEISLDLDMVSAVCPNCKIVLVEAKTNSFANLGTAENTAASLANVISNSYGGSDASDASYGSYYNHPGKAITVSSGDAGYGVEYPASSHYVTAVGGTSLRTASTSRGWSETAWSGAGSGCSAYNTALSGQSGLTGCSRRAVADVSAVADPATGVAVYDSTAYQGQSGWMVFGGTSVAAPIIGGVYGLAANAASIDNNYPYAHTSSLFDVTSGSNGTCTTTKWCTAGTGWDGPTGLGTPNGTGAF	–	complete 33-mer disappearance after 2 h at pH 3 (not shown)	100% residual	70% residual	50% residual	30% residual	20% residual	cleaved ... into small peptides to almost complete digestion in 2 hours	–	–	–	–	–
endopep-140 (protein) MPDLPTQRRSPRRSRRPAVLARLAGLRVGALVLALAVTTLTLISMPSANAAPAKPVVPHAKASSPTAQGQHPTSRVCRTPGRANEMTCLAMVRDDVIGPKGVQANDAPAGFGPADLLNAYNLPSAGSTETVAIVDAFDNPNAEADLGVYRQQYGLPACTTANGCFKKIDQRGGTSYPPPDAGWAGEIALDIDMVSAICPTCKILLVEADDNYMDNLGTAVNQAVSQGAKFVSNSYGGSEGSDEGQADDAYFHHDGVAITASSGDSGYGASYPAASPYVTSVGGTSLAKDTSSSRGWTESTWNGAGSGCSAYETKPSFQKDTGCARRTIADVSAVADPNTGVAVYNGGWHVYGGTSVSAPIIASVYALGGAPAAGSAPNSFPYDHPADLNDVTSGSNGSCSPAYLCTAGTGYDGPTGLGTPNGIAAFRSGPHAVVTGTVTDGTAPLASAQVKAGDVTATTDGQGHYTLSVPPGTYDVSASKFGYTGKTISGVQVADGQTVTEDFALTAKARVDVSGLVRDGSGHGWPVYATVRVKDQPTAVAYTDPKTGRYTLSLPTDDTYTLQVDPLYPGYTQDSHDVTVTSADVVHDVNVAVDQTTCSAPGYSYHYAGATQPFDGTTAPAGWTVDDKVGNGQTWVFNDPGSRGNKTGGTGGFAVIDSDHYGSGNTQDSTLFSPVTDFSARTHPILSFRSDWYGYTGQAGDLDLSVDGGTTWTNLKHYTASERGPRTETMDLSAAAGKSAVQVRFHFTGKFGYYWQVDDVFLGDRTCDPTSGGLVVGQVTDANTGAGVAGATVTSVDRPAEHATSAATPDDPNLGDGLFWMFSSVTGSHKFTATAGNYDSHDVTVNVAANWATAADIALSAPRLTVTPGAISKTVGWQKAATAALTLKNTGTSPVTAKIGEQPGGSTTATAGAPLQRVKGDFASGRLQQGKASGAKAGVTPYAPPWTAIADYASPIMDNGAVALNGKIYSVAGVDGANVLNKAYAYDPGTQAWTAIAPLATGREAPQATTTGGKLYVTGGWGSTGAAVAKTEIFDPSSGAWSAGADNPKPYAGSGAAVLDGKIYVVGGCLATCGTKDVQVYDPAANSWSSGPAYPENTAWLGCAGIDGKLYCAGGSAAASTKHGYVLDPASGTWSPIADLPIDLWAMGYSAANGKLIVSGGVTNGASTLTNQGFAYDPSANSWTALPNSNNALYRGASACGFYKIGGSLGQFNAVKSGEVLPGYDQCASTADVPWLSEDKTEVTIQPGQSVKVNVTLDANVPAITQPGTYTAQLTVGAKTPYAIPPVAVTMTVNPPGTWGKITGTLTGAGCTGSPAPLTGATLQIDSWAASYTLKTDKNGQYALWLDVRNNPLTLIAAKDGWAPQTRNVKITKLTSTTADFTLKPDHTCS	–	–	100% residual	–	–	–	–	cleaved ... into small peptides to almost complete digestion in 2 hours	complete 33-mer disappearance after 2 h at pH 3 (not shown)	70% residual	50% residual	45% residual	20% residual
